Measured values: article PMC4191430 (Nucleic Acids Research, 2014)

Biological target: T1, HA-Fbxl5 (human (cDNA from A549 cells), UniProt Q9UKA1 1-691)
T1 sequence (looked up): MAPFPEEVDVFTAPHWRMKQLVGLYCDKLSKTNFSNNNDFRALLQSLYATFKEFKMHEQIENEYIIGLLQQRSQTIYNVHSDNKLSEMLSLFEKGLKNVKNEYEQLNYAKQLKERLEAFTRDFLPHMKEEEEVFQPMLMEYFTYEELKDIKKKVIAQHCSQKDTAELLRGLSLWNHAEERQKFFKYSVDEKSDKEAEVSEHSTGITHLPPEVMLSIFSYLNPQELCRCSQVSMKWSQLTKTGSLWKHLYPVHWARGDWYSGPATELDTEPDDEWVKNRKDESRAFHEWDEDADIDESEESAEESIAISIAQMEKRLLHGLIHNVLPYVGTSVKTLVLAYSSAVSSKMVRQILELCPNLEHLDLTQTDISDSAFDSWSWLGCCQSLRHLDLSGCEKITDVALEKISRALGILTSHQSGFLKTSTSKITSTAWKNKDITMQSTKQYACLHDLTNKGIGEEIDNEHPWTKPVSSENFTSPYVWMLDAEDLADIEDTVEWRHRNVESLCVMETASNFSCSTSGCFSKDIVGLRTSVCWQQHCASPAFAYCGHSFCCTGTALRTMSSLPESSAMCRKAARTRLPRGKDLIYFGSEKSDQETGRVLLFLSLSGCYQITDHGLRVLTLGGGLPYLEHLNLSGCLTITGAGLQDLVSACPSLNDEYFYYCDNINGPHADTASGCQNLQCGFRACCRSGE
Test: pull-down

B1: GST-hSSB1 (natural protein, human (cDNA from A549 cells), UniProt Q9BQ15 1-211, looked up)
chain: MTTETFVKDIKPGLKNLNLIFIVLETGRVTKTKDGHEVRTCKVADKTGSINISVWDDVGNLIQPGDIIRLTKGYASVFKGCLTLYTGRGGDLQKIGEFCMVYSEVPNFSEPNPEYSTQQAPNKAVQNDSNPSASQPTTGPSAASPASENQNGNGLSAPPGPGGGPHPPHTPSHPPSTRITRSQPNHTPAGPPGPSSNPVSNGKETRRSSKR
binding result: binds
